Data taken from the RNAGym collection of RNA variant scans (doi:10.1073/pnas.2313332121).

B1: TPR t1 (parent)
chain: GACCAAUCUGCCCUCAGAGCUCGAGAACAUCUUCGGAUGCAGAGGAGGCAGGCUUCGGUGGCGCGAUAGCGCCAACGUCCUCAACCUCCAAUGCAUCCCACCACAUGAUGAUGCCUGAAGAGCCUUGGUUUUUUG

Variants of: B1
Assay: polymerase ribozyme fitness, log enrichment relative to wild type (log ratio); higher = more active; in vitro selection for triplet polymerase activity
Summary of the method: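 After PCR construction and transcription, each subunit's mutant library from a heterodimeric triplet polymerase ribozyme was annealed with a biotinylated primer, the partner subunit and triplets. Incubation was frozen, at −7 °C, and extended constructs were gel-excised, bound to streptavidin beads and amplified by RT-PCR, in one selection round done in triplicate. Fitness is the logarithm of a genotype's enrichment divided by that of the wild type, from inverse-variance-weighted replicate averages of Illumina-sequenced inputs and outputs. The base of the logarithm is 2, and genotypes needed ≥10 input reads and ≥1 read per output.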

Going from GACCAAUCUGCCCUCAGAGCUCGAGAACAUCUUCGGAUGCAGAGGAGGCAGGCUUCGGUGGCGCGAUGGCGCCAACGUGCUCAACCUCCAAUGCAUCCCACCACGUGAUUAUGCCUGAAGAGCCUUGGUUUUUUG to GACCAAUCUGCCCUCAUAGCUCGAGAACAUCUUCGGAUUCAGAGGAGGCAGGCUUCGGUGGCGCGAUAGCGCCAACGUCCUCAACCUUCACUGCAUCCCACCACAUGAUGAUGCCUUAAGAGCCUUGGUUUUUUG, the “polymerase ribozyme fitness (log ratio)” value rises from -8.49 to -3.62.

GACCAAUCUGCCCUCAGAGCUCGAGAACAUCUUCGCAUGCAGAGGAGGCAGGCUUCGGUGGCGCGAUAGCGCCAACGUCCUCAACCUCCAAUGCAUCCCACUACAUGAUGAUGCCUGAAGAGCCUUGGUUUUUUG and GACCAAUCUGCGCUCAGAGCUCGAGAACAUCUUCGCAUGCAGAGGAGGCAGGCUUCGGUGGCGCGUUAGCGCCAACGUCCUCAAUAUCCAAUGCAUCCCACCACAUGAUGAUGCCUGAAGAGCCUUGGUUUUUUG are within 0.2 log units of each other in “polymerase ribozyme fitness (log ratio)” value: -3.5 for the first, -3.38 for the second.

First: GACCAAUCAGCCCUCAGAGCUCGAGAACAUCUUCGGAUGCAGAGGAGGCAGGCUUCGGUGGCGCGAUAGCGCUAACGUCCUCAACCUCCAAUGCAUCCCACCACAUGAUGAUACCUGAAGAGCCUUGGUUUUUUG
Second: GACCAAUCUGCCCUCAGAGCUCGAGAACAUCUUCGGAUGCAGAGGAGGCAGGCUUCGGUGGCGCGAUAGCGCCAACGUCCUCAACCUCCAAUGCAUCGCACCACAUGAUGAUGCCAGAAGAGCGUUGGUUUUUUG
The “polymerase ribozyme fitness (log ratio)” value of the first is higher: -0.0138 for the first, -4.52 for the second.

First: GACCAAUCAGCCCUCAGAGCUCGAGAACAUGUUCGGAUGCAGAGGAGGCAGGCUUCGGUGGCGCGAUAGCGCGAACGUCCUCAAACUCCAAUGCAUCCCACCACAUGACGAUGCCUGAAGAGCCUUGGUUUUUUG
Second: GACCAAUCUGCCCUCAGAGCUCGAGAACAUCUUCGGAUGCAGAGGAGGCAGGCUUCGGUGGCGCGAUAGCGCCAACGUCCUCAACCUCCAAUGCAUCCCACCACAUGAUGAUGCCUGAAGAGCCAUGGUUUUAUG
The “polymerase ribozyme fitness (log ratio)” value of the first is lower: -5.57 for the first, -0.956 for the second.

Going from GACCAAUCUGCCCUAAGAGCUCGAGAACAUCUUCGGAUGCAGAGGAGGCAGGCUUCGGUGGCGGGAUAGAGCCAACGUCCUCAACCUCCAACGCAUCCCACCACAUGAUCAUGCUUGAAGAGCCUUUGUUUUUUG to GACCAAUCUGCCCUCAGAGCUCGAGAACAUCUUCGGAUGCAGAGGAGGCAGGCUUCGGUGGCGCGAUAGCGCCAACGUCCUCAACCUCCAAUGCAUCCCACCACAUGAUGAUAACUGAAGAGCCAUGGUUUUAUG, the “polymerase ribozyme fitness (log ratio)” value rises from -7.47 to -3.52.

First: GACCAAUCUGCCCUCAGAGCUCGAGAACAUCUUCGGAUUCAGAGGAGGGAGGCUUCGGUGGCGCGAUAGCGCCAACGUCCUCAACCUCCAAUGCAUCCCACCACAUGAUGAUGCCUGUAGAGCCUUGGUUUUUUG
Second: GACCAAUCUGCCCUCAGAGCUCGAGAACAUCUUCGGAUGCAGCGGAGGCAGGAUUAGGUGGUGCGAUAGCGCCAACGUCCUCAACCUCCAAUGCAUCCCACCACAUGAUGAUGCCUGAAGAGCCUUGGUUUUUUG
The “polymerase ribozyme fitness (log ratio)” value of the first is higher: -0.724 for the first, -3.14 for the second.

Compared with GACCAAUCUGCCCUCAGAGCUCGAGAACAUCUUCGGAUGCAGAGGAGGUAGGCUUCGGUGGCGCGAUAGCCCCAACGUCCUCAACCUCCAAUGCAUCCCACCACAUGAUGAUGCCUUAAAAGCAUUGGUUUUUUG, GACCAAUCUGCCCUCAGAGCUCGAGAACAUCUUCGGAUGCAGAGGAGGCAGGCUUCGGUGGCGCGAUAGCGCCUACGUCCUCAACCUCCAAUGCAUCCCACCACAUGAUGAUACCUGAAGAGCCUUGGUUUUUUG is higher in “polymerase ribozyme fitness (log ratio)” value: -2.34 for the first, -1.11 for the second.

First: GACCAAUCUGCCCUCAGAGCUCGAGAACAUCUUCGGAUGCAGAGGAGGCAGGCUUCGGUGGUGCGAUAGCGCCAACGUCCUCAACCUCCAAUGCAUCCCACCACAUGAUGAUGCCUGAAGAGCCUUGGUUUCUUG
Second: GACCAAUCUGCCCUCAGAGCUCGAGAACAUCUUCGGAUGCAGAGGAGGCAGGCUUCGGUGCCGCGAUAGCGCCAACGUCCUCAACCUCCAAUGCAUACCACCACAUGAUGAUGCCUGAAGAGCCUUGGUUUUUUG
The “polymerase ribozyme fitness (log ratio)” value of the first is higher: -0.257 for the first, -4.3 for the second.

First: GACCAAUCUGCCAUCAGAGCUCGAGAACAUCUUCGGAUGCGGAGGAGGCAGGCUUCGGUGGCACGAUAGCGCCAACGUCCUCAACCUCCAAUGCAUCCCACCACAUGAUGAUGCCUGAAGAGCCUUGGUUUCUUG
Second: GACCAAUCUGCCCUCAGAGCUCGAGAACAUCUUCGGAUGCAGAGGAGGCAGGCUUUGGUGGCGCGAUAGCGCCAACGUCCUCAACCUCCAAUGCAUCCCACCACAUGAUGAUGCCUGAAGUGCCUUGGUUUUUUG
The “polymerase ribozyme fitness (log ratio)” value of the first is lower: -4.55 for the first, 1.6 for the second.

Going from GACGAAUCUGCCCUAUGAGCUCGAGAACAUCUUCGGAUGCAGAGGAGGCAGGAUUCGGUGGCGCGAUAGCGCCAACGCCCUCAACCUCCAAUGCAUCCCACCACAUGAUGAUGCUUGAAGAGCCUUGGUUUUUUG to GACCAAUCUGCCCUCAGAGCUCGAGAACAUCUUCGGAUGCAGAGGAGGCAGGCUUCGGUGACGCGAUAGCGCCAACUUCCUCAACCUCCAAUGCAUCCCACCACAUGAUGAUGCCUGAAGAGCCUUGGUUUUUUG, the “polymerase ribozyme fitness (log ratio)” value rises from -3.67 to 0.142.

In the case of GACCAAUGUGCCCUCAUAGCUCGAGAACAUCUUCGGAUGCAGAGGAGGCAGGCUUCGGUGGCGCGAUAGCGCCAACGUCCACAACCCCCAAUGCACCCCACCACAUGAUGAUACCUGAAGAGCCUUGGUUUUUUG, the “polymerase ribozyme fitness (log ratio)” value is reported as -4.04.
